T1: recombinant chimpanzee PSMA extracellular domain (ECD) protein (Pan troglodytes, UniProt Q04609 44-750 (human entry))
T1 construct: also called Chimp PSMA ECD; PSMG8
T1 chain: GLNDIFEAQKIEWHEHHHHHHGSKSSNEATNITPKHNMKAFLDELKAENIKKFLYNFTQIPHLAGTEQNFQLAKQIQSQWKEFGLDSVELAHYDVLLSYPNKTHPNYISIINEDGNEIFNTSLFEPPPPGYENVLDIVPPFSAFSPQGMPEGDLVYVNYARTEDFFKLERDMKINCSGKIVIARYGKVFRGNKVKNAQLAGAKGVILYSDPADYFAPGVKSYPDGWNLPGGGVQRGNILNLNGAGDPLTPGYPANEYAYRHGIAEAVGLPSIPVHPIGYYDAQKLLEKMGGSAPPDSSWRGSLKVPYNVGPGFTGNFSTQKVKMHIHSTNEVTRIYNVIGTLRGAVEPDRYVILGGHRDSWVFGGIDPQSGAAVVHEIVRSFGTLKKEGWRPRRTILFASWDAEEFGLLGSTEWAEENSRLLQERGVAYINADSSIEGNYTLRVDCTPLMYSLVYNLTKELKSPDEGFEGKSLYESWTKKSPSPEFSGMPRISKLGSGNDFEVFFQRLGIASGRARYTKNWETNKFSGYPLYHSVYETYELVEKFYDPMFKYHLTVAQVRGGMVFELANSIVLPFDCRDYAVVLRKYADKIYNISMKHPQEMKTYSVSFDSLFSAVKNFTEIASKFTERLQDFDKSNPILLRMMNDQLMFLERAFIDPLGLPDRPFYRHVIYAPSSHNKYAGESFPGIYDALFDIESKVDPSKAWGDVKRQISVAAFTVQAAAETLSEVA


What was measured:
[1] = molecular target: T1, recombinant chimpanzee PSMA …; assay: SPR Biacore 3000, bsAb captured by anti-Fc
Method: Binding to recombinant Chimp PSMA by Biacore. The Affinity measurements using Surface Plasmon Resonance (SPR) were performed using a Biacore 3000 optical biosensor (Biacore-GE Healthcare). A biosensor surface was prepared by coupling anti-Human IgG Fc (Jackson ImmunoResearch Laboratory, cat #109-005-098) to the carboxymethylated dextran surface of a CM-5 chip (Biacore, cat # BR-1000-12) using the manufacturer instructions for amine-coupling chemistry. Approximately 16,000 RU (response units) of anti-Human IgG Fc antibodies were immobilized in each of four flow cells. The kinetic experiments were performed at 25° C. in running buffer (DPBS+0.03% P20+[…]). Dilutions of antigen (recombinant Chimp PSMA, concentration either from 1.2-300 nM or 3.7-900 nM in a 3-fold serial dilution) were prepared in running buffer. About 100 RU of PSMA×CD3 bispecific mAbs were captured on flow cell 2 to 4 of the sensor chip. Flow cell 1 was used as reference surface. Capture of PSMA×CD3 bispecific mAb was followed by a 3 or 5-minute injection (association phase) of antigen (recombinant Chimp PSMA) at 50 μl/min, followed by 15 or 20 minutes of buffer flow (dissociation phase). The chip surface was regenerated by two 18-second injections of 100 mM Phosphoric acid (H₃PO₄, Sigma, cat #7961) at 50 μl/min.
The collected data were processed using BIAevaluation software (Biacore). First, double reference subtraction of the data was performed by subtracting the curves generated by buffer injection from the reference-subtracted curves for analyte injections. Then kinetic analysis of the data was performed using a Langmuir 1:1 binding model with global fit. The result for each PSMA×CD3 bispecific mAb was reported in the format of kₐ (On-rate), kd (Off-rate) and KD (Equilibrium dissociation constant).

[2] = molecular target: T1, recombinant chimpanzee PSMA …; assay: SPR ProteOn, bsAb captured by anti-Fc
Method: The interactions of PSMA×CD3 bispecific mAbs with target (recombinant Chimp, PSMA) were studied by Surface Plasmon Resonance (SPR) using a ProteOn XPR36 system (BioRad). […] Approximately 4400 RU (response units) of anti-Human IgG Fc antibodies were immobilized. The kinetic experiments were performed at 25° C. in running buffer (DPBS+0.03% P20+100 μg/ml BSA). […] The association phase was monitored for 3 minutes at 50 μL/min, then followed by 15 minutes of buffer flow (dissociation phase). The chip surface was regenerated with two 18 second pulses of 100 mM Phosphoric acid (H₃PO₄, Sigma, cat #7961) at 100 μL/min.
The collected data were processed using ProteOn Manager software. First, the data was corrected for background using inter-spots. Then, double reference subtraction of the data was performed by using the buffer injection for analyte injections. The kinetic analysis of the data was performed using a Langmuir 1:1 binding model.

Row | Binder | Kd [1] | koff [1] | kon [1] | Kd [2] | koff [2] | kon [2]
1 | PS3B27 (bispecific antibody, human IgG4 S228P, kappa, lambda, F234A L235A, IgG4 PAA; PSMA arm chains first, then CD3 arm (F405L, R409K); also called PSMB127 x CD3B219; PS2B27) heavy 1: not shown light 1: not shown heavy 2: EVQLVESGGGLVQPGGSLRLSCAASGFTFNTYAMNWVRQAPGKGLEWVARIRSKYNNYATYYAASVKGRFTISRDDSKNSLYLQMNSLKTEDTAVYYCARHGNFGNSYVSWFAYWGQGTLVTVSSASTKGPSVFPLAPCSRSTSESTAALGCLVKDYFPEPVTVSWNSGALTSGVHTFPAVLQSSGLYSLSSVVTVPSSSLGTKTYTCNVDHKPSNTKVDKRVESKYGPPCPPCPAPEAAGGPSVFLFPPKPKDTLMISRTPEVTCVVVDVSQEDPEVQFNWYVDGVEVHNAKTKPREEQFNSTYRVVSVLTVLHQDWLNGKEYKCKVSNKGLPSSIEKTISKAKGQPREPQVYTLPPSQEEMTKNQVSLTCLVKGFYPSDIAVEWESNGQPENNYKTTPPVLDSDGSFLLYSKLTVDKSRWQEGNVFSCSVMHEALHNHYTQKSLSLSLGK light 2: QTVVTQEPSLTVSPGGTVTLTCRSSTGAVTTSNYANWVQQKPGQAPRGLIGGTNKRAPGTPARFSGSLLGGKAALTLSGVQPEDEAEYYCALWYSNLWVFGGGTKLTVLGQPKAAPSVTLFPPSSEELQANKATLVCLISDFYPGAVTVAWKADSSPVKAGVETTTPSKQSNNKYAASSYLSLTPEQWKSHRSYSCQVTHEGSTVEKTVAPTECS | 22.4 nM | 0.002 s⁻¹ | 89000 M⁻¹ s⁻¹ | 10.4 nM | 0.00176 s⁻¹ | 170000 M⁻¹ s⁻¹
2 | PS3B22 (bispecific antibody, human IgG4 S228P, kappa, lambda, F234A L235A, IgG4 PAA; PSMA arm chains first, then CD3 arm (F405L, R409K); also called PSMB122 x CD3B219; PSB22) heavy 1: not shown light 1: DIQMTQSPSSLSASVGDRVTITCRASQSIDRWLNWYQQKPGKAPKLLIYAASSLQSGVPSRFSGSGSGTDFTLTISSLQPEDFATYYCQQSPRYPLTFGQGTKVEIKRTVAAPSVFIFPPSDEQLKSGTASVVCLLNNFYPREAKVQWKVDNALQSGNSQESVTEQDSKDSTYSLSSTLTLSKADYEKHKVYACEVTHQGLSSPVTKSFNRGEC heavy 2: EVQLVESGGGLVQPGGSLRLSCAASGFTFNTYAMNWVRQAPGKGLEWVARIRSKYNNYATYYAASVKGRFTISRDDSKNSLYLQMNSLKTEDTAVYYCARHGNFGNSYVSWFAYWGQGTLVTVSSASTKGPSVFPLAPCSRSTSESTAALGCLVKDYFPEPVTVSWNSGALTSGVHTFPAVLQSSGLYSLSSVVTVPSSSLGTKTYTCNVDHKPSNTKVDKRVESKYGPPCPPCPAPEAAGGPSVFLFPPKPKDTLMISRTPEVTCVVVDVSQEDPEVQFNWYVDGVEVHNAKTKPREEQFNSTYRVVSVLTVLHQDWLNGKEYKCKVSNKGLPSSIEKTISKAKGQPREPQVYTLPPSQEEMTKNQVSLTCLVKGFYPSDIAVEWESNGQPENNYKTTPPVLDSDGSFLLYSKLTVDKSRWQEGNVFSCSVMHEALHNHYTQKSLSLSLGK light 2: QTVVTQEPSLTVSPGGTVTLTCRSSTGAVTTSNYANWVQQKPGQAPRGLIGGTNKRAPGTPARFSGSLLGGKAALTLSGVQPEDEAEYYCALWYSNLWVFGGGTKLTVLGQPKAAPSVTLFPPSSEELQANKATLVCLISDFYPGAVTVAWKADSSPVKAGVETTTPSKQSNNKYAASSYLSLTPEQWKSHRSYSCQVTHEGSTVEKTVAPTECS | 60.4 nM | 0.001 s⁻¹ | 16600 M⁻¹ s⁻¹ | 19 nM | 0.00124 s⁻¹ | 65100 M⁻¹ s⁻¹
3 | PS3B23 (bispecific antibody, human IgG4 S228P, kappa, lambda, F234A L235A, IgG4 PAA; PSMA arm chains first, then CD3 arm (F405L, R409K); also called PSMB123 x CD3B219) heavy 1: not shown light 1: not shown heavy 2: EVQLVESGGGLVQPGGSLRLSCAASGFTFNTYAMNWVRQAPGKGLEWVARIRSKYNNYATYYAASVKGRFTISRDDSKNSLYLQMNSLKTEDTAVYYCARHGNFGNSYVSWFAYWGQGTLVTVSSASTKGPSVFPLAPCSRSTSESTAALGCLVKDYFPEPVTVSWNSGALTSGVHTFPAVLQSSGLYSLSSVVTVPSSSLGTKTYTCNVDHKPSNTKVDKRVESKYGPPCPPCPAPEAAGGPSVFLFPPKPKDTLMISRTPEVTCVVVDVSQEDPEVQFNWYVDGVEVHNAKTKPREEQFNSTYRVVSVLTVLHQDWLNGKEYKCKVSNKGLPSSIEKTISKAKGQPREPQVYTLPPSQEEMTKNQVSLTCLVKGFYPSDIAVEWESNGQPENNYKTTPPVLDSDGSFLLYSKLTVDKSRWQEGNVFSCSVMHEALHNHYTQKSLSLSLGK light 2: QTVVTQEPSLTVSPGGTVTLTCRSSTGAVTTSNYANWVQQKPGQAPRGLIGGTNKRAPGTPARFSGSLLGGKAALTLSGVQPEDEAEYYCALWYSNLWVFGGGTKLTVLGQPKAAPSVTLFPPSSEELQANKATLVCLISDFYPGAVTVAWKADSSPVKAGVETTTPSKQSNNKYAASSYLSLTPEQWKSHRSYSCQVTHEGSTVEKTVAPTECS | 9.1 nM | 0.00122 s⁻¹ | 134000 M⁻¹ s⁻¹ | 1.8 nM | 0.00176 s⁻¹ | 989000 M⁻¹ s⁻¹
4 | PS3B30 (bispecific antibody, human IgG4 S228P, kappa, lambda, F234A L235A, IgG4 PAA; PSMA arm chains first, then CD3 arm (F405L, R409K); also called PSMB130 x CD3B219) heavy 1: not shown light 1: not shown heavy 2: EVQLVESGGGLVQPGGSLRLSCAASGFTFNTYAMNWVRQAPGKGLEWVARIRSKYNNYATYYAASVKGRFTISRDDSKNSLYLQMNSLKTEDTAVYYCARHGNFGNSYVSWFAYWGQGTLVTVSSASTKGPSVFPLAPCSRSTSESTAALGCLVKDYFPEPVTVSWNSGALTSGVHTFPAVLQSSGLYSLSSVVTVPSSSLGTKTYTCNVDHKPSNTKVDKRVESKYGPPCPPCPAPEAAGGPSVFLFPPKPKDTLMISRTPEVTCVVVDVSQEDPEVQFNWYVDGVEVHNAKTKPREEQFNSTYRVVSVLTVLHQDWLNGKEYKCKVSNKGLPSSIEKTISKAKGQPREPQVYTLPPSQEEMTKNQVSLTCLVKGFYPSDIAVEWESNGQPENNYKTTPPVLDSDGSFLLYSKLTVDKSRWQEGNVFSCSVMHEALHNHYTQKSLSLSLGK light 2: QTVVTQEPSLTVSPGGTVTLTCRSSTGAVTTSNYANWVQQKPGQAPRGLIGGTNKRAPGTPARFSGSLLGGKAALTLSGVQPEDEAEYYCALWYSNLWVFGGGTKLTVLGQPKAAPSVTLFPPSSEELQANKATLVCLISDFYPGAVTVAWKADSSPVKAGVETTTPSKQSNNKYAASSYLSLTPEQWKSHRSYSCQVTHEGSTVEKTVAPTECS | 52.3 nM | 0.00182 s⁻¹ | 34800 M⁻¹ s⁻¹ | 22.4 nM | 0.00165 s⁻¹ | 73400 M⁻¹ s⁻¹
5 | PS3B25 (bispecific antibody, human IgG4 S228P, kappa, lambda, F234A L235A, IgG4 PAA; also called PSMB87 x CD3B219) heavy 1: not shown light 1: not shown heavy 2: EVQLVESGGGLVQPGGSLRLSCAASGFTFNTYAMNWVRQAPGKGLEWVARIRSKYNNYATYYAASVKGRFTISRDDSKNSLYLQMNSLKTEDTAVYYCARHGNFGNSYVSWFAYWGQGTLVTVSSASTKGPSVFPLAPCSRSTSESTAALGCLVKDYFPEPVTVSWNSGALTSGVHTFPAVLQSSGLYSLSSVVTVPSSSLGTKTYTCNVDHKPSNTKVDKRVESKYGPPCPPCPAPEAAGGPSVFLFPPKPKDTLMISRTPEVTCVVVDVSQEDPEVQFNWYVDGVEVHNAKTKPREEQFNSTYRVVSVLTVLHQDWLNGKEYKCKVSNKGLPSSIEKTISKAKGQPREPQVYTLPPSQEEMTKNQVSLTCLVKGFYPSDIAVEWESNGQPENNYKTTPPVLDSDGSFLLYSKLTVDKSRWQEGNVFSCSVMHEALHNHYTQKSLSLSLGK light 2: QTVVTQEPSLTVSPGGTVTLTCRSSTGAVTTSNYANWVQQKPGQAPRGLIGGTNKRAPGTPARFSGSLLGGKAALTLSGVQPEDEAEYYCALWYSNLWVFGGGTKLTVLGQPKAAPSVTLFPPSSEELQANKATLVCLISDFYPGAVTVAWKADSSPVKAGVETTTPSKQSNNKYAASSYLSLTPEQWKSHRSYSCQVTHEGSTVEKTVAPTECS | 16.4 nM | 0.00108 s⁻¹ | 65900 M⁻¹ s⁻¹ | 5.5 nM | 0.00106 s⁻¹ | 195000 M⁻¹ s⁻¹

From patent US20200024360A1 (Janssen / Centocor, published 2020)
